From patent publication US20100138945A1 (FEMTA PHARMACEUTICALS, published 2010)
Changes are numbered by the printed parent chain.

B1: BA399_CPS_04 (antibody, V domains shown)
VH: QVQLVQSGAEVKKPGASVKVSCKASGFTFSSFSMSWIRQSPSRGLEWLGEISSGGSYTYYPDTVTGRFTISRDNAKNSLYLQMNSLRAEDTAVYYCARGQWGYYALDYWGQG
VL: AIQLTQSPSSLSASVGDRVTITCSASSSVSYMYWYQQKPGQAPRLLIYDTSNLASGIPPRFSGSGYGTDFTLTINNIESEDAAYYFCQDWSGYPYTFGQG
notes: also called Clone BA399-04; BA399_04
B2: BA399_CPS_06 (antibody, V domains shown)
VH: B1 VH with T58H
VL: B1 VL with S24Y, S51L
notes: also called Clone BA399-06; BA399_06
B3: BA399_CPS_01 (antibody, V domains shown)
VH: B1 VH with S33A
VL: B1 VL
notes: also called Clone BA399-01; BA399_01
B4: BA399_CPS_03 (antibody, V domains shown)
VH: B1 VH with G26H, S33A, T58H
VL: B1 VL with S51L, D89Q
notes: also called Clone BA399-03; BA399_03
B5: Clone BA399-05 (antibody, V domains shown)
VH: B1 VH with S33A, V64K
VL: B1 VL with S24Y
notes: also called BA399-5
B6: Clone BA399-09 (antibody, V domains shown)
VH: B1 VH with T58H
VL: B1 VL with S24Y, S51L, D89Q
notes: also called BA399-9; BA399 clone #9
B7: BA399_CPS_10 (antibody, V domains shown)
VH: B1 VH with G26H, T58H
VL: B1 VL with S24Y, S51L, D89Q
notes: also called Clone BA399-10; BA399_10
B8: Clone BA399-02 (antibody, V domains shown)
VH: B1 VH with V64K
VL: B1 VL with S24Y, D89Q
notes: also called BA399-2; BA399 clone #2
B9: Anti-IL-6 Ab BA802 (antibody, V domains shown)
VH: B1 VH with S33A, Q100L
VL: EIVLTQSPDFQSVTPKEKVTITCSASSSVSYMYWYLQKPGQSPQLLIYDTSNLASGVPSRFSGSGSGTDFTLTISSLQPEDFATYYCQQWSGYPYTFGQG
notes: Humanized monoclonal antibody
B10: Anti-IL-6 Ab BA840 (antibody, V domains shown)
VH: B1 VH with S33A, S40P, S42G, R43K, L48I, Q100L
VL: EIVLTQSPDFQSVTPKEKVTITCSASSSVSYMYWYLQKPGQSPQLLIYDTSNLASGIPPRFSGSGYGTDFTLTINNIESEDAAYYFCQQWSGYPYTFGQG
notes: Humanized monoclonal antibody
B11: Anti-IL-6 Ab BA808 (antibody, V domains shown)
VH: B1 VH with S33A, Q100L
VL: B10 VL with D9A, F10T, Q11L, T14S, K16G, K18R, V19A, I21L, T22S
notes: Humanized monoclonal antibody
B12: Anti-IL-6 Ab BA890 (antibody, V domains shown)
VH: B1 VH with S33A, S40P, S42G, R43K, L48I, Q100L
VL: B1 VL with D89Q
notes: Humanized monoclonal antibody
B13: Anti-IL-6 Ab BA939 (antibody, V domains shown)
VH: B1 VH with S33A, I37V, S40A, S42G, R43Q, L48M, Q100L
VL: B1 VL with A1D, L4M, D89Q
notes: Humanized monoclonal antibody
B14: Anti-IL-6 Ab BA848 (antibody, V domains shown)
VH: B1 VH with Q1E, S33A, I37V, S40A, S42G, R43Q, L48M, Q100L
VL: B1 VL with D89Q
notes: Humanized monoclonal antibody

Target: T1, human IL-6 (Interleukin-6) (human, UniProt P05231 30-212)
T1 construct: also called 001 IL-6 antigen
Assay: specific activity: affinity ELISA on IL-6 divided by quantitation ELISA, normalized to BA399 = 1
Protocol: 200 μl washing solution (0.05% Tween-20 in PBS) was added and shaken at 200 RPM for 5 min at room temperature. The plates were emptied and residual liquid tapped out on paper towels. 200 μl blocking solution (2% Carnation milk in PBS) was added and shaken at 200 RPM for one hour at room temperature. Plates were emptied and residual liquid tapped out on paper towels. 100 μl of diluted samples for ELISA was used. The samples were shaken at 200 RPM for one hour at room temperature; plates emptied and residual liquid tapped out on paper towels. 200 μl washing solution (0.05% Tween-20 in PBS) was added, shaken at 200 RPM for 5 min at room temperature; plates emptied and residual liquid tapped out on paper towels. This process was repeated three times. 100 μl of 1:2500 dilution of anti-human IgG conjugated with HRP diluted in block solution (2% Carnation milk in PBS) was added for 001 samples. 100 μl of 1:2500 dilution of anti-rabbit IgG conjugated with HRP diluted in block solution (2% Carnation milk in PBS) was added for control antibody. The contents were shaken at 200 RPM for one hour at room temperature, plates emptied and residue liquid tapped out on paper towels. 200 μl washing solution (0.05% Tween-20 in PBS) was added, shaken at 200 RPM for 5 min at room temperature; plates emptied and residual liquid tapped out on paper towels. This process was repeated three times. 100 μl TMB substrate solution was added, and incubated at room temperature. The reaction was stopped with 1 N HCl, and the plate read at 450 nm.
This ELISA was used for determining the expression level of antibodies in cell culture supernatant. […] Covered with plate sealer and incubated at 4° C. overnight. Emptied plate and tapped out residual liquid on paper towels. Added 200 μl washing solution (0.05% Tween-20 in PBS). Shaken at 200 RPM for 5 min at room temperature. Emptied plate and tapped out residual liquid on paper towels. Added 200 μl blocking solution (2% Carnation milk in PBS). Shaken at 200 RPM for one hour at room temperature. Emptied plate and tapped out residual liquid on paper towels. Used 100 μl of diluted sample for ELISA. 20 ng/ml of human IgG and 1:2 dilution thereafter was used for standards.

| Molecule | binding result |
| --- | --- |
| B1 | binds |
| B2 | binds |
| B3 | binds |
| B4 | binds |

Target: T1, human IL-6 (Interleukin-6)
Assay: Sapidyne KinExA kinetic exclusion assay on IL-6; Kd Range (95% Confidence Interval) printed: 5.66pM to 3.28pM
Target sequence in this assay (P05231 30-212 limits assumed): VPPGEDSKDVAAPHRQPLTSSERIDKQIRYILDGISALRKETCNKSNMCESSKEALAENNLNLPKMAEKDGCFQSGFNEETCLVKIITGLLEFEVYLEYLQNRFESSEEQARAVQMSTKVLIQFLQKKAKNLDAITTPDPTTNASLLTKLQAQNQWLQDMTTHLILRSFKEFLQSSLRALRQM

| Molecule | Kd [pM] |
| --- | --- |
| Anti-IL-6 Mab BA003 (CNTO136) (antibody) | 4.37 |

Target: T1, human IL-6 (Interleukin-6)
Assay: Biacore (SPR), antibody captured on anti-human Fc, IL-6 as analyte

| Molecule | Ka [M⁻¹] | Kd [pM] | koff [s⁻¹] | kon [M⁻¹ s⁻¹] |
| --- | --- | --- | --- | --- |
| B5 | 3.52e+10 | 28.4 | 2.86e-05 | 1.01e+06 |
| B6 | 1.28e+13 | 0.0783 | 5.07e-08 | 648000 |
| B7 | 3.52e+12 | 0.284 | 1.82e-07 | 643000 |
| B8 | 8.14e+13 | 0.0123 | 9.11e-09 | 742000 |

Target: T1, human IL-6 (Interleukin-6)
Assay: as above
Remark: another data set of the same source

| Molecule | Kd [pM] | koff [s⁻¹] | kon [M⁻¹ s⁻¹] |
| --- | --- | --- | --- |
| B9 | 39.6 | 5.88e-05 | 1.48e+06 |
| B10 | 236 | 0.000237 | 1.01e+06 |
| B11 | 50.5 | 6.59e-05 | 1.31e+06 |
| B12 | 86.5 | 6.44e-05 | 745000 |
| B13 | 40 | 5.76e-05 | 1.44e+06 |
| B14 | 127 | 0.000158 | 1.25e+06 |
